In patent US20140356364A1 (AMPLIMMUNE, published 2014):
Blank lines part the entries; values can stand above or below the binder they belong to.

Tests used:
[1] = molecular target: T1, Human B7-H4 protein antigen (coated on ELISA plates) (human, UniProt Q7Z7D3 25-259, limits assumed); test: ELISA, conditioned medium on coated human B7-H4 antigen, anti-Fc-HRP/TMB
T1 construct: also called B7-H4 antigen; human B7-H4 antigen
T1 sequence: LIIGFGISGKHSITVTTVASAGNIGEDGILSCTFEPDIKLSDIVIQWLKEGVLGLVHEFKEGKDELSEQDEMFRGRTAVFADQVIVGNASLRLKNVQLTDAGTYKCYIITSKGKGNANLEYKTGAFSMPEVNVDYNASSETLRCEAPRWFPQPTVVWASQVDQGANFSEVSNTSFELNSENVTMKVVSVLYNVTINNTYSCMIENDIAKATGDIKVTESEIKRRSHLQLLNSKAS

[2] = molecular target: T2, B7-DChIg construct (extracellular domain of human DC linked to the hinge and Fc region of a human IgG1) (human, UniProt Q9BQ51 20-220); test: plate-based ELISA, hybridoma supernatant on coated B7-DChIg
T2 construct: extracellular domain; Specificity control antigen in the plate-based assay; not shown: human IgG1 hinge and Fc region
T2 sequence (looked up): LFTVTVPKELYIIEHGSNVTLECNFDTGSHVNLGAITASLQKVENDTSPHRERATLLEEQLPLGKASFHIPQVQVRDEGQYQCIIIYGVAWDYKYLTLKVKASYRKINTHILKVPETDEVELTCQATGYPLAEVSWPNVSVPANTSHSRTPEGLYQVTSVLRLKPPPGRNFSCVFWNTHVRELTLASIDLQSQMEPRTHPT
Experimental: (§1) Serial dilutions were made from H74 (a commercially available anti-B7-H4 antibody), 2D1, 2E11 and 2H9 stock solutions and added to 96-well ELISA plates coated with B7-H4hIg or B7-DChIg. After incubation and wash, horseradish peroxidase (HRP) conjugated anti-mouse IgG antibody was added to the plates. After incubation and wash, 3,3′,5,5′-Tetramethylbenzidine (TMB) substrate was added. The colorimetric development was stopped by H₂SO₄ stop solution and read with a plate reader measuring absorbance at a 450 nm wavelength.
(§2) A plate-based binding assay using the B7-H4hIg construct was employed to capture the elicited antibody; antibodies were then characterized as being either IgG or IgM. As a specificity control, antibodies were also subjected to capture with a B7-DChIg construct (comprising the extracellular domain (ECD) of human DC linked to the hinge and Fc region of a human IgG1) (“B7-DChIg”) and the extent of IgG capable of binding was measured.

[3] = molecular target: T1, Human B7-H4 protein antigen (coated on …); test: ELISA, conditioned medium on coated human B7-H4 antigen, anti-Fc-HRP, OD650
Experimental: Human B7-H4 protein antigen and control antigen were coated onto 96-well ELISA plates. The plates are then blocked with 3% BSA, and washed in PBS.
The conditioned media (4 days post transfection) were then tested for antigen binding in the 96-well ELISA. Anti-Fc-HRP was used as the detecting antibody. Plates were washed with PBS, and TMB (3,3′,5,5′-tetramethylbenzidine) was added for HRP color reaction. Once color developed, the OD₆₅₀ in each well was determined on an absorbance microplate reader.

[4] = molecular target: T3, human B7-H4Ig (B7-H4hIg) (human, UniProt Q7Z7D3 25-259); test: plate-based ELISA, hybridoma supernatant on coated B7-H4hIg
T3 construct: also called B7-H4Ig construct; not shown: Ig (Fc) part of the 'hIg' construct
T3 sequence: T1 sequence
Experimental: as §1, §2

[5] = molecular target: T4, human B7-H4 expressed on the surface of stably transfected HEK293 cells (human, UniProt Q7Z7D3 25-282); test: flow cytometry, hybridoma supernatant on HEK293 cells expressing human B7-H4, APC anti-mouse detection
T4 construct: also called 293T.B7-H4 cells; human B7-H4 arrayed on the surface of a live cell
T4 sequence: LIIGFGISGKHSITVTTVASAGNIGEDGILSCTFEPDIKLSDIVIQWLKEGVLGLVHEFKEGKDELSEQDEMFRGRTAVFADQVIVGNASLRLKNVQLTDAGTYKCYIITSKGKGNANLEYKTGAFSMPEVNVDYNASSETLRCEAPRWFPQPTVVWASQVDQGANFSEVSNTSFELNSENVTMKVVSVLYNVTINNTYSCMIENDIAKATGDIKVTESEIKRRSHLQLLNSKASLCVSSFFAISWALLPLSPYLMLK
Experimental: Antibodies 2D1, 2E11 and 2H9 were used either un-diluted (Neat), or diluted at 1:3, 1:9 and 1:27, to stain 293T.B7-H4 cells. For binding detection, APC labeled anti-mouse IgG antibody was utilized followed by FACS analysis of APC positive cells. H74 (a commercially available anti-B7-H4 antibody) at 1 μg/mL was used as positive control. Negative control was 1 μg/mL of mIgG1. 293T.B7-H4 cells incubated with APC labeled anti-mouse IgG antibody (DAM APC only), and parent 293 T cells stained with un-diluted 2D1 (Neat [293T]) further served as negative binding controls.
Neat and diluted hybridoma supernatants were then tested for the ability of their antibodies to bind to such cells or to control […] HEK293 cells. After washing, bound antibody was detected with allophycocyanin (APC)-conjugated, anti-mouse antibodies and the mean fluorescent intensity of the cells was determined (FIG. 3).

B2: anti-human B7-H4 antibody 2D1 (murine hybridoma clone) (antibody, IgG2, V domains shown)
VH: EVQLVESGGGLVKPGGSLKLSCAASGFTFNSHGMSWVRQTPEKRLDWVATISDGGTYTYYPVNVKGRFTISRDNAKNNLYLQMSHLKSEDTAMYYCARDGGGGAYWGQGTLVTVSA
VL: DVVMTQTPLSLPVSLGDQASISCRSSHSLVHSNGNTYLHWYLQKPGQSPNLLIYIVSNRFSGVPDRFSGSGSGTDFTLKISRVEAEDLGVYFCSQSTHVPPTFGAGTKLELK
notes: Mouse hybridoma antibody tested as hybridoma supernatant; also called Anti-Human B7-H4 Clone 2D1
binding result [2]: no binding

B3: recombinant antibody of 2D1 heavy chain and 2H9 light chain (human IgG4 S228P) (antibody, V domains shown)
VH: B2 VH
VL: DIVLTQSPASLAVSLGQRATISCRASESIDNYGISFMHWYQQKPGQPPKLLIYRASNLESGIPARFSGSGSRTDFTLTINPVETDDVATYFCQQSDEGRTFGGGTKLEIKR
notes: Mixed-chain combination tested as CHO conditioned medium; also called 2D1 HC + 2H9 LC
binding result [3]: no binding | OD650 [1]: 0.06 OD650

B4: recombinant antibody of 2H9 heavy chain and 2D1 light chain (human IgG4 S228P) (antibody, V domains shown)
VH: EVQLVESGGNLVKPGGSLKLSCAASGFTFSNSAMSWVRQTPEKRLEWVATISDGGRYTYYPDNVKGRFTISRDNAKNNLYLQMSHLKSEDTALYYCARDRPHWYFDVWGTGATVTVSS
VL: DVVMTQTPLSLPVSLGDQASISCRSSHSLVHSNGNTYLHWYLQKPGQSPNLLIYIVSNRFSGVPDRFSGSGSGTDFTLKISRVEAEDLGVYFCSQSTHVPPTFGAGTKLELKR
notes: Mixed-chain combination tested as CHO conditioned medium; also called 2H9 HC + 2D1 LC
binding result [3]: no binding | OD650 [1]: 0.02 OD650

B5: anti-human B7-H4 antibody 2E11 (murine hybridoma clone) (antibody, IgG1, V domains shown)
VH: EVKLVESEGGLVQPGSSMKLSCTASGFKFTDYYMAWVRQVPEKGLEWVANINYDGSSTYYLDSLKSRFIISRDNAKNILYLQMNSLKSEDTATYYCARKGYFDYWGQGTTLTVSS
VL: DIVMSQSPSSLAVSVGEKVTVSCKSSQSLLYSTNQRTYLAWFQQKPGQSPKLLIYWASTRESGVPDRFTGSGSGTDFTLTISSVKAEDLAVYYCQQYYNYPLTFGTGTKLELK
notes: Mouse hybridoma antibody tested as hybridoma supernatant; IgG1-producing clone; also called Anti-Human B7-H4 Clone 2E11
binding result [2]: no binding | binding result [4]: binds | binding result [5]: binds

Continued, values first:

OD650 [1]: 1.12 OD650
B1: recombinant chimeric anti-B7-H4 antibody 2D1 (2D1 heavy chain / 2D1 light chain, human IgG4 S228P) (antibody, V domains shown)
VH: B2 VH
VL: B4 VL
notes: tested as CHO conditioned medium; also called 2D1 HC + 2D1 LC

OD650 [1]: 1.15 OD650
B6: recombinant chimeric anti-B7-H4 antibody 2H9 (2H9 heavy chain / 2H9 light chain, human IgG4 S228P) (antibody, V domains shown)
VH: B4 VH
VL: B3 VL
notes: tested as CHO conditioned medium; also called 2H9 HC + 2H9 LC

binding result [2]: no binding
B7: anti-human B7-H4 antibody 2H9 (murine hybridoma clone) (antibody, IgG1, V domains shown)
VH: B4 VH
VL: DIVLTQSPASLAVSLGQRATISCRASESIDNYGISFMHWYQQKPGQPPKLLIYRASNLESGIPARFSGSGSRTDFTLTINPVETDDVATYFCQQSDEGRTFGGGTKLEIK
notes: Mouse hybridoma antibody tested as hybridoma supernatant; IgG1-producing clone; also called Anti-Human B7-H4 Clone 2H9
